Paper PMC3283708

Biological target: rat cardiac ryanodine receptor (RyR2) (rat (endogenous in rat ventricular myocytes)) (UniProt B0LPN4)
Chain of UniProt B0LPN4 (B0LPN4 whole entry): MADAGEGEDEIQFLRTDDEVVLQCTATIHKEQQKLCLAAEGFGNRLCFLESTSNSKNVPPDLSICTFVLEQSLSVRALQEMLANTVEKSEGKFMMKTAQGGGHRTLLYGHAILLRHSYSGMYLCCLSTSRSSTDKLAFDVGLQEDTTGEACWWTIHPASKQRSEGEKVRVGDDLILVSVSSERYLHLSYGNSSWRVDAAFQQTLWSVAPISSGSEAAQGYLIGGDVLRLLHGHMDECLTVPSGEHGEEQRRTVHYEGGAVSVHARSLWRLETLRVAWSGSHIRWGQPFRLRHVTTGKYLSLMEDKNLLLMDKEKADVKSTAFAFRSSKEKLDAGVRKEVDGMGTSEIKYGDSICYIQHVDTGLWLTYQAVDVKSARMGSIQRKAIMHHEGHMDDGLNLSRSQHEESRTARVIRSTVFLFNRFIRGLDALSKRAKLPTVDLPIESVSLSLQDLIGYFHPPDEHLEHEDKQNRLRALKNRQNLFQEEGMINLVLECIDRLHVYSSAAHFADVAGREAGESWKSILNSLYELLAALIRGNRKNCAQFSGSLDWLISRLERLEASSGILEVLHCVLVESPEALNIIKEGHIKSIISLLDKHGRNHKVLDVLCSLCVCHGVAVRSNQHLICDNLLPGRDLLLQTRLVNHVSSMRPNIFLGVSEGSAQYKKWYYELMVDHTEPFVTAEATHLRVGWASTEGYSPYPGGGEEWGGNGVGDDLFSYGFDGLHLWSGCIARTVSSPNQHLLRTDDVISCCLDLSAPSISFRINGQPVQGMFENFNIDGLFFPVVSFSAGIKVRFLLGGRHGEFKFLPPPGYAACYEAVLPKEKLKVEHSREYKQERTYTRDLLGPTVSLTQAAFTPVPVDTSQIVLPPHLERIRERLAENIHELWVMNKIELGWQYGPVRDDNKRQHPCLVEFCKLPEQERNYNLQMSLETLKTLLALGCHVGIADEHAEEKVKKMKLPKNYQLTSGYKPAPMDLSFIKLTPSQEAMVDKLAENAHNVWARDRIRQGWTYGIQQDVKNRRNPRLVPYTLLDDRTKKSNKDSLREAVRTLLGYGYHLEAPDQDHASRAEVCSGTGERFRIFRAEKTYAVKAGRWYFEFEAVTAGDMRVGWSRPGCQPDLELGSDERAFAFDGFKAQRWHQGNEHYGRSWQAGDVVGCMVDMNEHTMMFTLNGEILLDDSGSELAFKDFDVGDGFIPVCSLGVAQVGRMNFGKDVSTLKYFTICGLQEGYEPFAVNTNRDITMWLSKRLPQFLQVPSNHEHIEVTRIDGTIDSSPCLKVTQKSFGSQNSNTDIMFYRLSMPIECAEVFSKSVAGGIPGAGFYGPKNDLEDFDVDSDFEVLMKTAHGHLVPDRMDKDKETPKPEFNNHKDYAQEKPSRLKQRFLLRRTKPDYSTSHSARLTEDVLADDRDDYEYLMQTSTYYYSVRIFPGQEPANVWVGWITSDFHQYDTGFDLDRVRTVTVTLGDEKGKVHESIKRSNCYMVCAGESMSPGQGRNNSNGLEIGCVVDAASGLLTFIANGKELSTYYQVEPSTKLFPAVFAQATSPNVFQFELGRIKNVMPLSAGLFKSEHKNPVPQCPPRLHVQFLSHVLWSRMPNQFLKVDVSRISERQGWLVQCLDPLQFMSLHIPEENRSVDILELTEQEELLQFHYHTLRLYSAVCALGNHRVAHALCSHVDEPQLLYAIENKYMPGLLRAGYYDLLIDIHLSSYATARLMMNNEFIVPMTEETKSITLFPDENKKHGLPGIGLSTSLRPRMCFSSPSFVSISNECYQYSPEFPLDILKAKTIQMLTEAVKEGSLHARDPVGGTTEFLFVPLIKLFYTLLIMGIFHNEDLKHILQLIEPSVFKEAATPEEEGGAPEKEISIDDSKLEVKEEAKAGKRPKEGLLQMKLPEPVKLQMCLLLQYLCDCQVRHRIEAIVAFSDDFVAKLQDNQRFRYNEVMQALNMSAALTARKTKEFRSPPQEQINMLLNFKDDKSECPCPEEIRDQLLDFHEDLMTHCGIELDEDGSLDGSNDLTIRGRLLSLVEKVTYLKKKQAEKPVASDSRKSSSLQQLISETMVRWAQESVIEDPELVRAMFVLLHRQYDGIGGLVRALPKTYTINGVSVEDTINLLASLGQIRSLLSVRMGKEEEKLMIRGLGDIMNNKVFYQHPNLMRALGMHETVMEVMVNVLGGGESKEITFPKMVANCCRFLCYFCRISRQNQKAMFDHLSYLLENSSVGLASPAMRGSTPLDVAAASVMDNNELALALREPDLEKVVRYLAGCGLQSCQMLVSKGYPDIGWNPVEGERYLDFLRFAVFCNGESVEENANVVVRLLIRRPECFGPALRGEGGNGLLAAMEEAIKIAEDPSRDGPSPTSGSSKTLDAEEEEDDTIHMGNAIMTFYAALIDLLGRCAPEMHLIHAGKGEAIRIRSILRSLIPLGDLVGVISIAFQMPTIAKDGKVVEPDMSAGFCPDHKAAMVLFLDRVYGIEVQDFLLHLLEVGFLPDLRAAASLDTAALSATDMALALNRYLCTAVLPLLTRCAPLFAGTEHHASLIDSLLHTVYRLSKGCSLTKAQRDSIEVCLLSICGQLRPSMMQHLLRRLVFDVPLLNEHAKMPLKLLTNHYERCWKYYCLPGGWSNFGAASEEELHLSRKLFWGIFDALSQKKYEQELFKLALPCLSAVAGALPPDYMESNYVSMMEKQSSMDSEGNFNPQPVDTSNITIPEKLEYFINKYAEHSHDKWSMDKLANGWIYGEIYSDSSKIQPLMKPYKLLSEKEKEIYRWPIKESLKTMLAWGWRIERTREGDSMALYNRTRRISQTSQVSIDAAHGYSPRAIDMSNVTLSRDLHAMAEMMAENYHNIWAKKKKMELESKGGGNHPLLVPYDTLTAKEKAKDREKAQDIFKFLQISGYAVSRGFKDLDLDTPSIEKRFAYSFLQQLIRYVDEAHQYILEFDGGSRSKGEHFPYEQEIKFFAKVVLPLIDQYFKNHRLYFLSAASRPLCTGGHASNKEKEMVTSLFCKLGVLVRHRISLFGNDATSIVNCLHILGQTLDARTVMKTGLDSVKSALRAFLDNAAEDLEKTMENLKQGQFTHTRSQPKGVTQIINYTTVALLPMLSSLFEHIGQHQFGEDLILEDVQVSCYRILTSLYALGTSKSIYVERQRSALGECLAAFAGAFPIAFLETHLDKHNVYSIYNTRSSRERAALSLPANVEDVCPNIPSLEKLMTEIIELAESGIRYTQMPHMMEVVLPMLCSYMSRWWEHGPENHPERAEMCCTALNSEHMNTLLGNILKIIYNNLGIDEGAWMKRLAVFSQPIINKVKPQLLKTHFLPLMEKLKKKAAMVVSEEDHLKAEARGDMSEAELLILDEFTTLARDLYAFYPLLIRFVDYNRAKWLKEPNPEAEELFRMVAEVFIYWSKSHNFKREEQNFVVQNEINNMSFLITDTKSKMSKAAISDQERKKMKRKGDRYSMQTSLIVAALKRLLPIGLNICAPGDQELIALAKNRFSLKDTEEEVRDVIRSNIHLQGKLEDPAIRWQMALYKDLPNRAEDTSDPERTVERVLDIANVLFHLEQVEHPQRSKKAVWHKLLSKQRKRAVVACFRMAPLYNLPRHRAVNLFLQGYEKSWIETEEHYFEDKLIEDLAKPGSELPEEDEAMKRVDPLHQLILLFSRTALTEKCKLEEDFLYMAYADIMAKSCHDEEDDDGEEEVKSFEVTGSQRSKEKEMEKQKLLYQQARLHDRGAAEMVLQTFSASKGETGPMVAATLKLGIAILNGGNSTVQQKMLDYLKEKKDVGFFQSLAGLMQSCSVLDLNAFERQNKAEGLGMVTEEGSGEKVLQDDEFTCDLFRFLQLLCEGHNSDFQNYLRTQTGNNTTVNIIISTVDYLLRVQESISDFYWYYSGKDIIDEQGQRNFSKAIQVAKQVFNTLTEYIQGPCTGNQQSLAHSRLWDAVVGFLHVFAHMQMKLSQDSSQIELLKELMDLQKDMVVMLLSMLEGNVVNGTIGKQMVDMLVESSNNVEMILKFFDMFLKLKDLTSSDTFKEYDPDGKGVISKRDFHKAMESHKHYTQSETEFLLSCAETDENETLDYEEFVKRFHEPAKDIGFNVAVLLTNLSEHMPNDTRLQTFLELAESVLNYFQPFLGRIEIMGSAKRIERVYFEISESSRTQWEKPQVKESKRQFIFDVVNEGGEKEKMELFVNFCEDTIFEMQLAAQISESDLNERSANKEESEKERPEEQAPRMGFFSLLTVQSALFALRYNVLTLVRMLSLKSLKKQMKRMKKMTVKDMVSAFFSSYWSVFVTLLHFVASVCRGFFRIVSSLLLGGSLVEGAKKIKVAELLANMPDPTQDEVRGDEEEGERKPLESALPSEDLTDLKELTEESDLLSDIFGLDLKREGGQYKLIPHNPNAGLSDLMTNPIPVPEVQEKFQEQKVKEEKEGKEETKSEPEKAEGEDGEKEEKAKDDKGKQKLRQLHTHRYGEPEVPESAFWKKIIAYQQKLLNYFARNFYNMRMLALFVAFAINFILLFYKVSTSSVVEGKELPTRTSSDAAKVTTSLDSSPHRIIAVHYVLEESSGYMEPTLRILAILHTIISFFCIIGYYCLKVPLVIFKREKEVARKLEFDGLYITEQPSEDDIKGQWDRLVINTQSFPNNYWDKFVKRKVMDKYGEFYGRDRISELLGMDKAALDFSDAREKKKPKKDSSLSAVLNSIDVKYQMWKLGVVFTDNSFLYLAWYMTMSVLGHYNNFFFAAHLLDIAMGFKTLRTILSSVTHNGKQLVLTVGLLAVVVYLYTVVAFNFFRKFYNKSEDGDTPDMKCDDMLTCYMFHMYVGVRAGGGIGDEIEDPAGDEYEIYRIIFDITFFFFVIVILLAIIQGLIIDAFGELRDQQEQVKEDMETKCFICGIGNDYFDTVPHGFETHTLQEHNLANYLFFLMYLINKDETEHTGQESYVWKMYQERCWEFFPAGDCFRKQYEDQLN

Chain of FKBP12 (P62942 whole entry): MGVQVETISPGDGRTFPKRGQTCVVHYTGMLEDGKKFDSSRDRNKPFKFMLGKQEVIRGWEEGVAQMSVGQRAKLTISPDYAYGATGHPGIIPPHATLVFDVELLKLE

Q: What does the source list for “FKBP12 (from UniProt P62942 1-108) (natural protein)”?
A: percent increase in the frequency of spontaneous Ca^2+ waves in permeabilised rat cardiac myocytes with 3 µM FKBP12: 50%; percent increase in the frequency of spontaneous Ca^2+ waves in permeabilised rat cardiac myocytes with 3 µM FKBP12, after pre-incubation with and in the continued presence of 200 nM FKBP12.6: 16.2%
